Measurements reported in the nanobody polyreactivity screen of Harvey et al. (2022).

Assay: yeast display, Sf9 membrane polyspecificity reagent, FACS + sequencing; frameworks hold sequencing errors
Procedure, shortened: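 Galactose-induced (36–48 hours) yeast carrying a synthetic nanobody display library were exposed to 10% biotinylated, detergent-solubilized Sf9 membrane reagent at 4 °C for 1 hour. FACS followed streptavidin microbead enrichment, using low and high (top ~1%) gates for expression (anti-HA) and reagent binding (streptavidin). Colony PCR, MiSeq 2 × 250 sequencing and CDR-length filtering followed. Labels for polyreactivity reflect the gate of origin.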

Row | Sequence | polyreactivity (PSR sort gate)
1 | QVQLLESGGGLVEAGGSLRLSCSASGSTYNAMGWYRQATGKEREFVAYITTGGGGTYYADSVKGRFTISRDNAKNTVYLQMNSLKPEETADYYCAAEDYRTRTYVYRYRYYFWGQGTQVTVAS | high polyreactivity
2 | QVQLLESGGGLVPAGGSLRLSCAASGRIFSRYAMGWYRQAPGKERELVAAISRNGGSTYYADSVKGRFTISRDNAKNTVYLQMISLKPEDTAVYYCAASYFIYHYDFDYWGQGTQVTVSS | high polyreactivity
3 | QVQLLESGGGLVPSRGSLRLSCAASGFIFGHNTMGWYRQAPGKERELVARITSSGGGTNYADSVKGRFTISRDNAKNTVYLQMNSLKPEDTAVYYCAAELLYWGYYDYDYWGQGTQVTVSS | high polyreactivity
4 | QVQLLESGGGLVQAGGILRLSCAASGIIFRYYTMGWYRPAPGKERELVAAITSGGSTNYADSVKGRFTISRDNAKHTVYLQMNRLKPEDTAVYYCRQLSVWGYDYWGQGTQVTVSS | high polyreactivity
5 | QVQLLESGGGLVQAGGRLRLSCAASGSIFLWNAMGWYRQAPGKERELVAAITNIGGRTYYADSVKGRFTISRDNAKNTVYLQMNSLKPEDTAVYYCNVVVKGAWDYYPYDYWGQGTQVTVSS | high polyreactivity
6 | QVQLLESGGGLVQAGGSHRLSCAASGIIFQWNVMGWYRQAPGKERELVASITSGSSTHYADSVKVRFTISRDNAKNSVYLQMNSLKPEDTAVYYFAADGALRAEYDVEIEYDYWGQGTQVNVSS | low polyreactivity
7 | QVQLLESGGGLVQAGGSLRLICSASGRTFSGYALGWYRHSPGRERELVAAITSSGSSKYYADSVKGRFTISRDKAKYTVYLQMKSLKPEDTAVYYCAATPQAHSEPYFYQRKYDFWGEGTQVTVSS | low polyreactivity
8 | QVQLLESGGGLVQAGGSLRLRCAASGFIISRYAMAWYRQAPGKEMELVAGITGSGGSTYYADSVKGRFTISRDNAKNTVYLQMNSLKPEDTAVYYCAAGRRGGALLFYYWGQGTLVTVSS | high polyreactivity
9 | QVQLLESGGGLVQAGGSLRLSCAASGFIFDESAKGRYRQAPGKERQLVAAISWSGSRTYYADSVKGRFTISRDNAKNTVYLQMNSLKPEDTAVYYCAKVTGVGAGRRNYWGQGTQVTVSS | low polyreactivity
10 | QVQLLESGGGLVQAGGSLRLSCAASGFIFNHYAMGWYRQAPGKEREFVAAISWSGGSTYYADSVKGRFTISRDNAKNTVYLQMNSLKPEDTAVYYCAASYNGLWHGDYDYWGQGTQVTVSS | low polyreactivity
11 | QVQLLESGGGLVQAGGSLRLSCAASGFTFEDNAMGWYRKAPGKERELVAADGTNYADSVKGRFTISRDNAKNTVYLQMNSLKPEDTAVYYCARYARQVTPLSIGLYDYWGQGTQVTVSS | low polyreactivity
12 | QVQLLESGGGLVQAGGSLRLSCAASGIIFRVYAMGWYRQAPGKERELVATITWSGGSTFYADSVKGRFTISRDNAKNTVYLQMNSLKPEDTAVYYCAKRGYVRSGLGRPYADDYWGQGTQVTVSS | low polyreactivity
13 | QVQLLESGGGLVQAGGSLRLSCAASGITFQLYAMGWYRQAPGKEREFVAAINGRSGRTYYADSVKGRFTISRDNAKNTVYLHMNSLKPEDTAVYYCAKTSNGYGSGLPMYYWGQGTQVTVSS | high polyreactivity
14 | QVQLLESGGGLVQAGGSLRLSCAASGLTFNTYAMGWYIQAPGKERELVAAISRGGGSTYYADSVKGRFTISRDNAKNTVYLQMNSLKPEDTAVYYCNAEKRASYLLYDYWGQGTQVTVSS | high polyreactivity
15 | QVQLLESGGGLVQAGGSLRLSCAASGNIFMDYAMGWYRHAPGKERELVAAITSRVDDTYYADSVKGRFTISRDNAKNTVYLQMNSLKPEDTAVYYCAADYSVTLRIGGYYWFYAFDYWGQGTQVTVSS | low polyreactivity
16 | QVQLLESGGGLVQAGGSLRLSCAASGRIFGRYAMGWYRHAPGKERELVAAISQSGARTYYADSVKGRFTFSRDNAKNTVYLQMNSLKPEDTAVYYCAARYKALYDYWGQGTQVTVSS | high polyreactivity
17 | QVQLLESGGGLVQAGGSLRLSCAASGRIFGSNAMGWYRQAPGKERELVAAITRGGSTNYADSVKGRFTISRDNAKNTVYLQMNSLKPEDTAVYYCAVRWYRKYNYWGQGTQVTVSS | high polyreactivity
18 | QVQLLESGGGLVQAGGSLRLSCAASGRIFKFNAMGWYRQAPGKERDLVAAISKRGGSTYYADSVKGRFTISRDNAKNTVYLQMISLKPEDTAVYYCAADRSPYGGDYDYWGQGTQVTVSS | high polyreactivity
19 | QVQLLESGGGLVQAGGSLRLSCAASGRTFQRNAMGWYRQAPGKETELVATITTNGGSTYYADSVKGRFTISRDNAKNTVYLQMNSLKPEDTAVYYCAAPFNPRVRTLRSVRMDYWGQGTQVTVSS | low polyreactivity
20 | QVQLLESGGGLVQAGGSLRLSCAASGRTFTTYTMGWYRQAPGKERELVAAIRSGGRTYYADSVKGRFTISRDNAKNTVYLQMNSLKPEDTAVYYCNARDCVRNVYAYAGRQYDYWGQGTQVTVSS | low polyreactivity
21 | QVQLLESGGGLVQAGGSLRLSCAASGRTLDRNAMGWYRQAPGKERELVAAISRRTGSTYYADSVKGRFTISRDNAKNTVYLQMNSLKPEDTAVYYCNKVTYGDFDYWGQGTQVTVSS | high polyreactivity
22 | QVQLLESGGGLVQAGGSLRLSCAASGSIFFYYAMGWDRQAPGKERELVATITSGGSTSYADSVKGRFTISRDNAKNTVYLQMNSLKPEDTAVYYCAARKVTKSTYNYWGQGTQVTVSS | low polyreactivity

Row | Sequence | polyreactivity (PSR sort gate)
23 | QVQLLESGGGLVQAGGSLRLSCAASGSIFRYNDMGWYRKAPGKETELVATITSGTNTYYADSVKGRFTISRDNAQNTVYLQMNRLKPEDTAVYYCAKSYNAWDGRTFEEMNYWGQGTQVTVSS | low polyreactivity
24 | QVQLLESGGGLVQAGGSLRLSCAASGSIFVFYAMGWYRQAPGKERELVAAISSSGGSTYYADTVKGRITISRDNAKNTVYLQMNSLKPEDTAVYYCAVRRSTGSRSPPMYYWGQGTQVTVSS | high polyreactivity
25 | QVQLLESGGGLVQAGGSLRLSCAASGSILYPYAMGWYRQAPGTERELVAVITKSGGGTYYADSVKGRFTISRDNAKNTVYLQMNSLKPEDTAVYYCNRVWLRGAPHMEYWGQGTQVTVSS | high polyreactivity
26 | QVQLLESGGGLVQAGGSLRLSCAASGSIYVYNAMAWYRQAPGKERELVAAISRGGRTYADSVKGRFTISRDNAKNTVYLQMNSLKPEDTAVYYCAAQGYYRSWYSRQGHYDFWGQGTQVTVSS | high polyreactivity
27 | QVQLLESGGGLVQAGGSLRLSCAASGSTCGRNAMGWYRQAPGKERELVAAITSTGSTYYADSVKGRFTISRDNAKNTFYLQMNSLNPEDTAVYYCAAEARPYLFPAYKYPYYSWGQGTQVTVSS | low polyreactivity
28 | QVQLLESGGGLVQAGGSLRLSCAASGSTFDRYAMGWNRQAPGKEREFVAAITWGGGSTYYADSVKGRFTISRDNAKNTVYLKFNSLKPEDTAVYYCATRYGASFGYWVQGTQVTVSS | low polyreactivity
29 | QVQLLESGGGLVQAGGSLRLSCAASGSTFGFYAMGCYRPAPGKERELVAAISKSGDITYYADSVKGRFTNSLDNAKNTVYLQMNSLKPEDTAVYYCADRYGYLDNSIYVYWGQGTQVTVSS | high polyreactivity
30 | QVQLLESGGGLVQAGGSLRLSCAASGSTFINNAMGWYRQAPGKERELVAAISGNADRTYYADSVKGRFTISRDYAKNTVYLQMISLKPEDTAVYYCNALSLLSDGAASVDQVTFDYWGQGTQVTVSS | low polyreactivity
31 | QVQLLESGGGLVQAGGSLRLSCAASGSTFLANAMGWYRQAPGKERDLVAAISSSGGSTYYADSVKWRFTISRDNAKNTVYVQMNSLKPEDTAVYYCAAATASRYRLWGGYYYWGQGTQVTVSS | low polyreactivity
32 | QVQLLESGGGLVQAGGSLRLSCAASGSTFPRYVMGWYRQAPGKERELVAAISSSSGRTFYADSVKGRFTISRDNAKNTVYLQMNSLKPEDTSVYYCAARTSFNVHYWGQGTQVTVSS | high polyreactivity
33 | QVQLLESGGGLVQAGGSLRLSCAASGSTFYSYAMGGYRQAPGKERELVAAISSSSGSTYYADSVKGRFTISRDNANNSVYLQMNSLKPEDTAVYYCNRGRRYSHKYDYWGQGTQVTVSS | high polyreactivity
34 | QVQLLESGGGLVQAGGSLRLSCAASGYTFAYYAMGWYRQAPGKERELVATISWSDGSTYYADSVKGRFTISRDNAKNTVYLQMNSLKPEDTAVYYCAADTPGYYTYYGFGYWGQGTQVTVSS | low polyreactivity
35 | QVQLLESGGGLVQAGGSLRLSCAASGYTFRYYTMGWYRQAPGKERELVAAISGSGGSTYYADSVKGRFTISRDTAKNTVYLQMNSLKPEDTAVYYCNRFYSTSRITQYEFDYWGQGTQVTVSS | high polyreactivity
36 | QVQLLESGGGLVQAGGSLRLSCAASGYTLRKYAMGWYRQAPGKERELVAAIRTSGGSTYYADSVKGRFTISRDNAKNTVYLQMNSLKPEDTAVYYCAAEWIFSYTWEYDYWGQGTQVTVSS | low polyreactivity
37 | QVQLLESGGGLVQAGGSLRLSCAASVSTFLYYTMGWYRQATGKQRELVAAISDDGSTSYADSVKGRFTISRDNAKITVYLQMNSLKPEDTAVYYCAARFYHNRYTFYDFYTLYPYYYWGQGTQVTVSS | low polyreactivity
38 | QVQLLESGGGLVQAGGSLRLSCKARGSILGDRMSWYRQAPVKEHELVATIYDGGITYYADSMKGRFTISRDNAKNTVYLQMNRLRPEDTAVYYCGASFEGYRYHVYCGQGTQVTVSS | low polyreactivity
39 | QVQLLESGGGLVQAGGSLRLSCMASGSILGDRMSWYRQAPGKEHELVATIYDGGITYYADSMKGRFTISRDNAKNTVYLQMNSLRPEDTAVYYCGASFEGYGYHVYCGQGTQVTVSS | low polyreactivity
40 | QVQLLESGGGLVQAGGSLRLSFAASGYIFSVNAMGWYRQAPGQERELVATIRTDGTTNYADSVNGRFTISRDNAKNTVYLKMNSLKPEDTAVYYCATDSGWSTYDYWGQGTQVTVSS | high polyreactivity
41 | QVQLLESGGGLVQAGGSLRLSFASSGSIFHPYAMGWYRQAPGKERELVAAITSGGSTYYADSVKGLFTISRDNAKNTDLLQMNSLNPEDNAVYYCAKDFDIYYSKYDYWGQGTQVTVSS | low polyreactivity
42 | QVQLLESGGGLVQAGGSLRLSGAASGRIFRWYAMGWYRQAPGKEREFVAAITSSGGSTYYADSVMGRFTISRDNAKNTVYLQMNSLKPDDTAGYYCAALVYLGGSYSRGYDWGQGTQVTVSS | high polyreactivity
43 | QVQLLESGGGLVQAGGSLRLTCAASGNIFISYAMAWYRQAPGKERELVAAISRSGGSTYYADSVKGRFTISRDNAKNTVYLQMNSLKPEDTAVYYCAAYIGPGRYGSWGQGTQVTVSS | high polyreactivity
